Source: publication PMC9563011

Molecular target: IL-2Rα Fc tag (UniProt P01589)
Sequence of UniProt P01589 (P01589 22-240): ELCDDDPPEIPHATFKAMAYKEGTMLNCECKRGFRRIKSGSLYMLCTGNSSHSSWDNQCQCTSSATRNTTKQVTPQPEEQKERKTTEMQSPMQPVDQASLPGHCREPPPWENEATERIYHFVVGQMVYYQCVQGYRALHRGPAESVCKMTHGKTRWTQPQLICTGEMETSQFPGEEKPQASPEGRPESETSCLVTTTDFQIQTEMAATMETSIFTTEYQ

IL-2K35C (from UniProt P60568 22-153) (ligand)
EC50 of CTLL-2 cell proliferation (CellTiter-Glo, 48 h, 50 to 0.002 ng/mL): 0.014 µg/mL
